Positions count from the first letter of the chain named. Names and notes keep the numbering of the source. Values joined by “and” are separate entries in the source; they are usually repeats but may differ in a detail not shown here. Equal values may be shown once.
T1: rhCD73 bound to his-tag magnet beads (human, UniProt P21589 27-549, limits assumed)
T1 sequence: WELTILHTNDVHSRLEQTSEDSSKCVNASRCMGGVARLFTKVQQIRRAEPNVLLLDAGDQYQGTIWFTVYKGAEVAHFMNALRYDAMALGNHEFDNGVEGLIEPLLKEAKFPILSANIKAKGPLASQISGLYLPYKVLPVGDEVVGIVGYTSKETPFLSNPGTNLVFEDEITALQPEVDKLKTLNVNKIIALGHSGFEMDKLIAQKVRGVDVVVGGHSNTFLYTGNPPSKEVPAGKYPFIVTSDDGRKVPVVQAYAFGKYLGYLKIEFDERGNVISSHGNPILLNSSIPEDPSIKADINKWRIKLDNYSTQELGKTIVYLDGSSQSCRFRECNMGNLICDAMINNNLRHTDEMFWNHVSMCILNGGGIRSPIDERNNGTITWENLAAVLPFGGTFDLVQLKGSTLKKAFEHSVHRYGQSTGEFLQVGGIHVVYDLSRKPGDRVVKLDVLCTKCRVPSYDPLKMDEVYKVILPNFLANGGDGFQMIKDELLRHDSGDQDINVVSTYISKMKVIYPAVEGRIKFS

T2: human CD73 on cells (Calu6, NCI-H292, SK-MEL-24, human tumor cell lines, human B and T cells) (human, UniProt P21589 27-549)
T2 sequence: T1 sequence

T3: N-terminal domain of hCD73 (residues 26-336 of human CD73), His-tagged (human, UniProt P21589 26-336)
T3 construct: also called N-hCD73; N-hCD73-his
T3 sequence: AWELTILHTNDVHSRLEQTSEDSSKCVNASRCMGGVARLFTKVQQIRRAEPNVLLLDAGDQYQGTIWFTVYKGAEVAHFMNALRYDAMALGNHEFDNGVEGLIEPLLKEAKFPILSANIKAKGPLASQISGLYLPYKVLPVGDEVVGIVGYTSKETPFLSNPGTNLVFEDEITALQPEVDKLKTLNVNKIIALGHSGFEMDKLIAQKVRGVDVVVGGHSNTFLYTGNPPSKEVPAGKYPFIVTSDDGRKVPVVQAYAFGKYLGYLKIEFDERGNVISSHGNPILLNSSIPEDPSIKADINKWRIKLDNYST

B1: 4D4 (antibody, human IgG2, kappa)
heavy: QVQLVESGGGVVQPGRSLRLSCAASGFTFSNYGMHWVRQAPGKGLEWVAVIWYDESNKYYADSVKGRFTISRDNSKNTLFLQMNSLRAEDTAVYYCARGYNSRWYPDAFDIWGQGTMVTVSSASTKGPSVFPLAPCSRSTSESTAALGCLVKDYFPEPVTVSWNSGALTSGVHTFPAVLQSSGLYSLSSVVTVPSSNFGTQTYTCNVDHKPSNTKVDKTVERKCCVECPPCPAPPVAGPSVFLFPPKPKDTLMISRTPEVTCVVVDVSHEDPEVQFNWYVDGVEVHNAKTKPREEQFNSTFRVVSVLTVVHQDWLNGKEYKCKVSNKGLPAPIEKTISKTKGQPREPQVYTLPPSREEMTKNQVSLTCLVKGFYPSDIAVEWESNGQPENNYKTTPPMLDSDGSFFLYSKLTVDKSRWQQGNVFSCSVMHEALHNHYTQKSLSLSPGK
light: not shown
notes: IgG2 from hybridoma; also called 4D4-1
B2: 10D2 (antibody, human IgG4, kappa, V domains shown)
VH: QVQLVESGGGVVQPGRSLRLSCAASGFTFSNYGLHWVRQAPGKGLEWVAVIRYDGSNKYYADSVKGRFTISRDNSKNTLYLQMSSLRAEDTAVYYCARGGSSWYPDGLDVWGQGTTVTVSS
VL: DIQMTQSPSSLSASVGDRVTITCRASQGISSWLAWYQQKPEKAPKSLIYAASSLQSGVPSRFSGSGSGTDFTLTISSLQPEDFATYYCQQYNSYPLTFGGGTKVEIKR
notes: also called 10D2-2
B3: 24H2 (antibody, human IgG4, kappa, V domains shown)
VH: B2 VH with L34M, R52W, S56G, Y80F, S84N, G107A, L108F, V110I, T116M
VL: B2 VL
notes: also called 24H2-1
B4: CD73.4-IgG2.5G1-KH (antibody)
heavy: QVQLVESGGGVVQPGRSLRLSCAASGFTFSNYGMHWVRQAPGKGLEWVAVILYDGSNKYYPDSVKGRFTISRDNSKNTLYLQMNSLRAEDTAVYYCARGGSSWYPDSFDIWGQGTMVTVSSASTKGPSVFPLAPSSRSTSESTAALGCLVKDYFPEPVTVSWNSGALTSGVHTFPAVLQSSGLYSLSSVVTVPSSNFGTQTYTCNVDHKPSNTKVDKTVERKCCVECPPCPAPPVAGPSVFLFPPKPKDTLMISRTPEVTCVVVDVSHEDPEVKFNWYVDGVEVHNAKTKPREEQYNSTYRVVSVLTVLHQDWLNGKEYKCKVSNKALPAPIEKTISKAKGQPREPQVYTLPPSREEMTKNQVSLTCLVKGFYPSDIAVEWESNGQPENNYKTTPPVLDSDGSFFLYSKLTVDKSRWQQGNVFSCSVMHEALHNHYTQKSLSLSPGK
light: not shown
B5: CD73.4-IgG2.5G1.1f-KH (antibody)
heavy: B4 heavy with A330S, P331S
light: not shown
B6: CD73.4-IgG2.3G1-KH (antibody)
heavy: B4 heavy with S135C, C223S
light: not shown
B7: CD73.4-IgG2.5 (antibody)
heavy: B4 heavy with K274Q, Y296F, Y300F, L309V, A327G, A339T, V397M
light: not shown
B8: CD73.4-IgG2.3-plusTHT (antibody)
heavy: QVQLVESGGGVVQPGRSLRLSCAASGFTFSNYGMHWVRQAPGKGLEWVAVILYDGSNKYYPDSVKGRFTISRDNSKNTLYLQMNSLRAEDTAVYYCARGGSSWYPDSFDIWGQGTMVTVSSASTKGPSVFPLAPCSRSTSESTAALGCLVKDYFPEPVTVSWNSGALTSGVHTFPAVLQSSGLYSLSSVVTVPSSNFGTQTYTCNVDHKPSNTKVDKTVERKSCVETHTCPPCPAPPVAGPSVFLFPPKPKDTLMISRTPEVTCVVVDVSHEDPEVQFNWYVDGVEVHNAKTKPREEQFNSTFRVVSVLTVVHQDWLNGKEYKCKVSNKGLPAPIEKTISKTKGQPREPQVYTLPPSREEMTKNQVSLTCLVKGFYPSDIAVEWESNGQPENNYKTTPPMLDSDGSFFLYSKLTVDKSRWQQGNVFSCSVMHEALHNHYTQKSLSLSPGK
light: not shown
B9: CD73.4-IgG2.5-plusTHT (antibody)
heavy: B8 heavy with C135S, S223C
light: not shown
B10: CD73.4-IgG2.3-plusGGG (antibody)
heavy: B8 heavy with T227G, H228G, T229G
light: not shown
B11: CD73.6-IgG2-C219S-IgG1.1f (antibody)
heavy: B4 heavy with G55S, S135C, C223S, A330S, P331S
light: not shown
notes: also called CD73.6-IgG2CS IgG1.1f
B12: CD73.11-IgG2-C219S (antibody)
heavy: QVQLVESGGGVVQPGRSLRLSCAASGFTFSNYGMHWVRQAPGKGLEWVAVIWYDESNKYYADSVKGRFTISRDNSKNTLFLQMNSLRAEDTAVYYCARGYNSRWYPDAFDIWGQGTMVTVSSASTKGPSVFPLAPCSRSTSESTAALGCLVKDYFPEPVTVSWNSGALTSGVHTFPAVLQSSGLYSLSSVVTVPSSNFGTQTYTCNVDHKPSNTKVDKTVERKSCVECPPCPAPPVAGPSVFLFPPKPKDTLMISRTPEVTCVVVDVSHEDPEVQFNWYVDGVEVHNAKTKPREEQFNSTFRVVSVLTVVHQDWLNGKEYKCKVSNKGLPAPIEKTISKTKGQPREPQVYTLPPSREEMTKNQVSLTCLVKGFYPSDIAVEWESNGQPENNYKTTPPMLDSDGSFFLYSKLTVDKSRWQQGNVFSCSVMHEALHNHYTQKSLSLSPG
light: not shown
notes: 4D4 variable regions; also called CD73.11-IgG2CS; mAb-CD73.11-Vh-hHC-IgG2-C219S
B13: 4C3 (antibody, human IgG1, kappa, V domains shown)
VH: EVQLVESGGGLVQPGRSLRLSCAASGFTFDDYAMHWVRQAPGKGLEWVSGISWKSGSIGYADSVKGRFTISRDNAKNSLYLQMNSLRAEDTALYYCVKGYYVILTGLDYWGQGTLVTVSS
VL: not shown
notes: IgG1za from hybridoma; also called 4C3-1

Biological target: T1, rhCD73 bound to his-tag magnet beads
Experiment: cell-based or functional assay

Row | EC50 (nM), inhibition of bead-bound rhCD73 enzymatic activity | Binder
1 | 5.31 nM | B1
2 | 6.94 nM | B2
3 | 4.18 nM | B3

Biological target: T2, human CD73 on cells (Calu6, NCI-H292, …)
Experiment: cell-based or functional assay

Row | EC50 (nM), CD73 internalization, Calu6, 2 h | Ymax, CD73 internalization, Calu6, 2 h | Binder
4 | 0.38 nM | 104 % of 100 nM 11F11 | B1
5 |  | 29 % of 100 nM 11F11 | B2
6 | 8.2 nM | 51 % of 100 nM 11F11 | B3

Biological target: T2, human CD73 on cells (Calu6, NCI-H292, …)
Experiment: binding titration on Calu6 cells, average of 2-6 experiments
Method: Titration binding curves were produced with CD73 antibodies on Calu6 (CD73 endogenous expressors; human pulmonary adenocarcinoma cell line), DMS114 (CD73 negative; human small cell lung cancer cell line), CHO-cynoCD73 (cynoCD73-transfected) and CHO-K1 (cynoCD73 negative), cells using Alexa Fluor® 647 Goat Anti-Human IgG (H+L) as a secondary antibody, Invitrogen Cat#A-21445, using the following method: 100000 cells were plated in 100 uL PBS+2% FBS per well and blocked for 20 min. Using a U-bottom 96-deep well plate, volumes of antibody and PBS+2% FBS were combined as dictated by Table 12 below.
An 8-point serial dilution was performed by diluting a sixth of the volume (90 uL) into 450 μL PBS+2% FBS. The cell plate was spun down for 5 minutes at 1500 rpm. 100 uL of diluted antibody was added per well of the plate. 100 uL PBS+2% FBS were added to all other wells. […] The plates were spun down at 1500 rpm for 5 min and washed in 200 uL PBS +2% FBS per well. The plates were washed again, resuspended in 200 uL 2% FBS in PBS per well and the samples were run.

Row | EC50 | Binder
7 | 0.82 nM | B1

Biological target: T2, human CD73 on cells (Calu6, NCI-H292, …)
Experiment: cell-based or functional assay
Remark: another data set of the same source

Row | CD73 Inhibition EC50(nM), cAMP assay, Calu6 | CD73 Inhibition S:B, cAMP assay, Calu6 | Binder
8 | 0.44 nM | 42 | B4
9 | 0.87 nM | 45 | B5
10 | 1.7 nM | 52 | B6
11 | 2.17 nM | 51 | B7
12 |  | 33 | B8
13 | 0.9 nM | 44 | B9
14 | 1.26 nM |  | B10

Biological target: T3, N-terminal domain of hCD73 (residues …)
Experiment: SPR, mAb captured on protein A
Method: For these experiments, protein A (Pierce) was immobilized to a density of 3000 — 4000 RU on flow cells 1-4 of a CM5 sensor chip (GE Healthcare) using standard ethyl(dimethylaminopropyl) carbodiimide (EDC)/N-hydroxysuccinimide (NHS) chemistry, with ethanolamine blocking, in a running buffer of 0.01 M HEPES pH 7.4, 0.15 M NaCl, 3 mM EDTA, 0.005% v/v tween 20. […] The running buffer for the kinetic experiments was 10 mM sodium phosphate, 130 mM sodium chloride, 0.05% tween 20, pH 7.1. The surfaces were regenerated after each cycle using two 30 s pulses of 10 mM glycine pH 1.5 at a flow rate of 30 μl/min. Sensogram data was double-referenced and then fitted to a 1:1 Langmuir model using Biacore T100 evaluation software v2.0.4, to determine the association rate constant (ka), the dissociation rate constant (kd), and the equilibrium dissociation constant (KD).

Row | Kd | koff | kon | Binder
15 | 0.72 nM | 0.00022 s⁻¹ | 300000 M⁻¹ s⁻¹ | B11
16 | 3.5 nM and 6.5 nM | 0.00028 s⁻¹ and 0.00051 s⁻¹ | 80000 M⁻¹ s⁻¹ and 79000 M⁻¹ s⁻¹ | B12
17 | 9.4 nM and 6.2 nM | 0.00077 s⁻¹ and 0.00049 s⁻¹ | 82000 M⁻¹ s⁻¹ and 79000 M⁻¹ s⁻¹ | B1
18 | 1.6 nM | 0.00095 s⁻¹ | 610000 M⁻¹ s⁻¹ | B2
19 | 14 nM | 0.0032 s⁻¹ | 230000 M⁻¹ s⁻¹ | B3

Biological target: T2, human CD73 on cells (Calu6, NCI-H292, …)
Experiment: cell-based or functional assay
Remark: another data set of the same source

Row | Ymax, cAMP HTRF assay | Binder
20 | 80 % of 100 nM 11F11 | B13

Source: patent US20230051701A1 (Bristol-Myers Squibb, published 2023)
